Assay: label from the status in PepcDB records
In the case of “MTTLVLRAKRWLYLLHRWMGVGLCLLFVLWFASGVVMMYVGYPNLTPAERLAHLPGLDAAQVRLGPAQALRAAGLEQAAEIRLAASRAGQPFYAVVPLAGGRTLRVDAASGQLAGRATPAQARASALAYFGARHAAREGGLVSEDAHTHTRTLDEHRPLYVFEMDDPARTRLYVSSSTGEVVRDAPRLERGWNYVGAWLHWLYPLRGAYWHDIVVWLSVLGVALTVSGTVVGLWRWRFARPYASGSRSPYRERFMRWHHIAGLLFAATTLTWIFSGLMSMNPWQVFGTRATQLDRAAYRGGPLQADNLPAGPAVAMPARKLVWTRVAGQTLLQVYGAAGAPALRTADGAAPRTLAPATLGVALGRLLPSAAPPRIEVLDGYDSYYYARAPHTMLGHVEKPLPVWRVVYDDPRGTWLHVDPRSGEILGSLDRPRRVSRWLFAFLHSWDWPPLLQRRPAWDAVLIVLSLGGLLLSGAGVVIGWRRVGRKLR”, the protein production is reported as “failed”. With “MTTLVPLNRIDSQKIEDLLDIGFGKDRHGRTAYRLRQGVSAIPELSFAAVDGDILQGIIQCWPIRLSCLNGKKLPMILLGPVAVHPDYQGHGIGQTLVQHSLDVADSSDITGHDAVMLIGDPEYYNRFFGFSDEETGDWRLPGPVEKRRLLARLTSPRL” the protein production was “failed”. For “MTTPFVLAVPSKGRLQENAEAFFARAGLTLSKLGGARDYRGTIAGLDNVEIAYLSASEIAAQLARGTVHLGITGEDLIRESIADADKKVALIEGLGFGGANVVVAVPQAWIDVRTMADLDDVTTGFRAQHNRRMRVATKYINLTRNFFAAHGVVDYRIVESAGATEGAPAVGTAEMIVDITSSGATLVANGLKVLDDGVILRSQANLVASRAADWSADALETARVILDRIAARARANKYKEVRTRFAGCDASLLTEAHNRFGVVSPFGGPTSSGMITLHCPPAQLYALGSFLRDHGADTVSIASLDYVLDRENPLFAKLESFLRQ”, the protein production was “failed”. For “MTTPLSPEATPPHGDLASGNVTRRILGIVVFNFIAYLSVGLPIAVVPGFVHGDLGYSAVLAGLAVSIQYLATLLSRPWAGSLCDMKGPKRSVLTGLLLCAGSGLLMLVAAQFAGNDWLALGWLLSSRLMLGAGESLVTTGTIAWGIGSVGARHTAKVISWNGVTTYGALAVGAPVGVLLAGHGGLTAIGIVTSVIAGASWLLARRQAAVPILKGERLPFRSVFRAMSPFGLCLGLGSVGFGAITAFITLYYAGHGWDHAALALTALGTCFVLTRLIMADSITRFGGYPVALVSFAVEAAGLAMLWLAQAPWQALAGAAVVGFGFSLVFPSLGIEAVKRVPATNRGSALGAYALFFDFSLGLTGPVAGLITKHAGYPAVYLFAALAAVLALVLSQVLAARYRDRLAPAT”, the protein production was “failed”. For “MTTPNFELYGYFRSSCSGRLRIAFHLKSIPYTRHPVNLLKGEQHSDTYKSLNPTNTVPLLVVSNINNTVSPSSASFSIGQSLAALEYLEEALPTNARPLLPPISNPVARAHVRTICNIIACDVQPVTNLKIQKKVKALDGDPTVWSRDLATQGFGAVEKLLELSAGRFCVGDEITLADVCLVPAVWAAERVGMDLARFPITKRVFEEMLKEEAVQKAHWQKQEDTPEDLRA”, the protein production was “not failed”. For “MTTRILTGITPTGTPHLGNYAGAIRPAILASRRSDVDSFYFLADYHALIKCDDPARIQRSRLEIAATWLAGGLDVERATFYRQSDIPEIPELTWLLTCVSAKGLLNRAHAYKAAVDRNVEAGEDPDAGVTMGLYSYPVLMAADILMFNAHKIPVGRDQVQHVEMARDIGQRFNHLFGNGREFFVLPEAVIEENVATLPGLDGRKMSKSYDNTIPLFSPSRQLKDAIARIVTDSRAPGEPKDPDSSHLFLLYSAFASAEQVAAFRQELLEGLAWGEAKQRLFQLLDNELGEARERYQALIAKPDDIEDILLAGAAKARRIATPFIAELREAVGLRSLREPLKSAESGKKKAAKAARLVSFRDDDGSFRFRLLDAAGEQLLLSRAFADGKAAGAVSKRLLAGETADLRAEGNAFGLWLDGEAVAQSPAFADAAARDAAIERTREALAPQ”, the protein production was “failed”. With “MTTTSSINERQVLKHLQAQLPDCLLLDRFHLKRRLQQVGAMLEQGKPVDKLMTELATKVQTSLQRRQLRQEQLPKPEYPAELPVSARKDEIAQAIAKHQVVIVSGETGSGKTTQLPKICLELGRGVAGLIGHTQPRRIAARSVASRIAQELKSPLGEAVGYKVRFNDRLSETTYIKLMTDGILLAETQGDRFLNAYDTIIIDEAHERSLNIDFLLGYLKQLLPRRPDLKVIVTSATIDAERFSRHFNGAPVIEVSGRTYPVEIRYRPLGSRRMVVAPPAPVAAPVPVVAQKEEAPQEDIIDIGIKRKAGNIDPSIRKWLEDDNDVEVLGQDIMGIQRKPRAEAKWLEEDDAEEAMEEAILDSVEQLSRLGGGDILVFLPGEREIRETADYLNKHLRHVEILPLFARLSIEDQQKVFRSSGGRRVVLATNVAETSLTVPGIKYVIDTGLARVNRYSARAKVEQLQVEKISQAAARQRAGRCGRVSNGICIRLYDEADFNHRPEFTDPEILRSSLAAVILRMAALKLGNVQDFPFIEAPSSRYIADGYQLLQELGAVDAEQNITDTGRQLARLPLDPRVSRMILEGKKQGCVREILIIASALAIQDPRERPMDKREAADQAHAKFNVEHSDFLGFIKLWEWYEDALKTKKSNKDLLNKCHSNFLSFLRLKEWRELYQQLREIAEELELKLNEQPASYEQVHRALLAGLLGNIGFKDGEADNYLGARGIRFHIAPGSTLKKARPKWVMAAELMETTKLYARCVARIEPDWIEPLARGLTQSHYSDPRWDRKAAQVVAWERVSLYGLTVVPRRRVHYGPINPQESREIFIREALANMEFDTRAPFFAANRKLIAEIEELEHKARRQDVLVDEHTLFAFYDAIIPAGIVNGAGFEKWRQEAERETPRLLYLTRDHLMRHGAAGVTEVQFPESLELDGVKLPLKYRFEPGHPLDGVTATVPLALLNQLNPVEAEWLVPGMIREKVTALIKALPKTLRRVCVPVPDFVTGFLETATRKDGALLPALASYIQQRTGLKLSASEWQADALDAHLYMNFRVVDEKNRELGSGRDWHALKAQLGQAAQLTFRSNSPGIEKAGLKQWDFGDLPPTLSFSRDGRQLTGYPALEDNGDSVAIKLFDTELAARQSHRAGVRRLMRFELKEQMKQLEKGLPGFNQYALQLRSIMSPEELREDMLVAISDRAFIGEDELPRNSQDFMALKARARTRLPAVVEGAGRLATAIATEYTQLTQKLNAAPASLSRVKKELEGQLARLLPKRFFSATPWDTLQHLPRYIKAMRLRLEKYPGAIERDTRSGQAVQQIWERWESHVQGLRKANQEVPPAVLDYRWLIEELRVSLFAQELKTPFPVSVKRLDKAWEDMVRA” the protein production was “failed”. With “MTTVIVANDLVGFGKVALTSSLLPIMSACQTEVLPLPTVLLSSHTGEFDNIYVRYLTVDMQGFCGQWKRLDFRVDGLVGGYFKSEEELGLVSQCLTKKRFLFLLDPIMGDNGRLYQGFDRDYVEAMKDFCQQADVIIPNLTEAALLTGSPYLEEGSYDMTTIENLLRNLSRLGPRKVILTGISFETEKIGLAYFDKETNQVIYRMRKRYQSHFYGSGDLLTAILSAGYFHNLDFLKVCDLALDFLNKVLLFTLSSGRPLKYGLCYEPLYRLFILEHHHHHH” the protein production was “not failed”. In the case of “MTVDAATSAEVSQRVLAYLVEQLGVDVSFLRHNDRDRRATRLVAEWPPRLNIPDPDPLRLIYFADADPVFALCEHAKEPLVFRPEPATEDYQRLIEEARGVPVTSAAAVPLVSGEITTGLLGFIKFGDRKWHEAELNALMTIATLFAQVQARVAAEARLRYLADHDDLEHHHHHH”, the protein production is reported as “not failed”. In the case of “MTVDSNTSSGRGNDPEQIDLIELLLQLWRGKMTIIVAVIIAILLAVGYLMIAKEKWTSTAIITQPDAAQVATYTNALNVLYGGNAPKISEVQANFISRFSSAFSALSEVLDNQKEREKLTIEQSVKGQALPLSVSYVSTTAEGAQRRLAEYIQQVDEEVAKELEVDLKDNITLQTKTLQESLETQEVVAQEQKDLRIKQIEEALRYADEAKITQPQIQQTQDVTQDTMFLLGSDALKSMIQNEATRPLVFSPAYYQTKQTLLDIKNLKVTADTVHVYRYVMKPTLPVRRDSPKTAITLVLAVLLGGMIGAGIVLGRNALRSYKPKAL”, the protein production is reported as “not failed”.

— a protein production outcome set (Wang et al. 2014)
